Assay results taken from paper PMC4277767 (ACS Synthetic Biology, 2014).

Molecular target: LexA-CRY2 (CRY2 fused to the LexA DNA binding domain) (Arabidopsis, UniProt Q96524 1-612)
Assay: two-hybrid

Chain of LexA-CRY2 (CRY2 fused to the LexA DNA binding domain) (Q96524 whole entry, the tested form may be a part): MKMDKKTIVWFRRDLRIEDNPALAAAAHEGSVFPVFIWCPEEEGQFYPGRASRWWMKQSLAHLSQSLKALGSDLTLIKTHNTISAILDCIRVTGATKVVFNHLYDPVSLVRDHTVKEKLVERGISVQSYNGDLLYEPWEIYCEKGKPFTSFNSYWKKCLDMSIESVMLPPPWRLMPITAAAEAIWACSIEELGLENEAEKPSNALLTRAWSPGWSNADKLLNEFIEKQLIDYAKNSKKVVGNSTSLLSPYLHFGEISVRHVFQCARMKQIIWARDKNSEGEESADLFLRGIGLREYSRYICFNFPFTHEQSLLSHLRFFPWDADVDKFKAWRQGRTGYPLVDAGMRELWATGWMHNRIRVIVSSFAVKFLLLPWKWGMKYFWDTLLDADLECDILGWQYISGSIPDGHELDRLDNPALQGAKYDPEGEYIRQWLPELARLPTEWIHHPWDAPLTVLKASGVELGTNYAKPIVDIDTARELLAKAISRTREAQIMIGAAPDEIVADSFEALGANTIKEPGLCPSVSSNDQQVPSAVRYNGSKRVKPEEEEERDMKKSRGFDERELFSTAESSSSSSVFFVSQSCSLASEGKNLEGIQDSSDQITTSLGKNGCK

B1: VP16-CIB1 (CIB1 fused to a VP16 activation domain) (natural protein, Arabidopsis, UniProt Q8GY61 1-335, looked up)
chain: MNGAIGGDLLLNFPDMSVLERQRAHLKYLNPTFDSPLAGFFADSSMITGGEMDSYLSTAGLNLPMMYGETTVEGDSRLSISPETTLGTGNFKKRKFDTETKDCNEKKKKMTMNRDDLVEEGEEEKSKITEQNNGSTKSIKKMKHKAKKEENNFSNDSSKVTKELEKTDYIHVRARRGQATDSHSIAERVRREKISERMKFLQDLVPGCDKITGKAGMLDEIINYVQSLQRQIEFLSMKLAIVNPRPDFDMDDIFAKEVASTPMTVVPSPEMVLSGYSHEMVHSGYSSEMVNSGYLHVNPMQQVNTSSDPLSCFNNGEAPSMWDSHVQNLYGNLGV
  fold stimulation of reporter activity by blue light over dark: ~100 fold
